Results on one sequence are retold here after paper PMC10118275.

The target of data set [1] is T1, MBP-TDF1 (Arabidopsis thaliana) (UniProt Q9LSI7).
T1 sequence: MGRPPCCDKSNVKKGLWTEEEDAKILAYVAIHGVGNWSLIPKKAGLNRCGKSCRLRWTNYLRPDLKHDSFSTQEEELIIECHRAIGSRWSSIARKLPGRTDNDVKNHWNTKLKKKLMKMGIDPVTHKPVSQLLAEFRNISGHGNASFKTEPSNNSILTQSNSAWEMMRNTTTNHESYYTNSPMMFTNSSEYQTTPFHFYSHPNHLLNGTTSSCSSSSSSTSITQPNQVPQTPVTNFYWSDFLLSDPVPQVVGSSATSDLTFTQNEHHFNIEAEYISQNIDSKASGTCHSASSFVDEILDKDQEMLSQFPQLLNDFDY
Briefly: EMSA. To be noted: 10 mM Tris-HCl pH 7.5, 50 mM KCl, 1 mM DTT, 20 uL, room temperature 20 min; 6% polyacrylamide, 0.5x TBE.

Data set [2] concerns the target T1, MBP-TDF1 (Arabidopsis thaliana). In words: competition. To be noted: 10 mM Tris-HCl pH 7.5, 50 mM KCl, 1 mM DTT, 20 uL, room temperature 20 min; 6% polyacrylamide, 0.5x TBE.

“TACGTGATTAGGATTTGTAACCACGTAGACGTGTAAAACAAAATTACTTTTTTATCTGTGATTTATAGGAATTTGAGATTTGAATGCAACGTTGTTGTTTCATCTAACAATAAGTGATGAAGAACTTCAAAAGTCTAAAACCATATCATTTATAAAATCA (double strand) [SKS18 promoter 18-2 probe]”: the binding result in data set [1] and in data set [2] was “binds” in each case.
